Data: article PMC5809386, “Cadherin-26 (CDH26) regulates airway epithelial cell cytoskeletal structure and polarity” (Cell Discovery, 2018)

Target: the molecule itself
Assay: SEC; analytical size exclusion chromatography of recombinant CDH26A, 'in cell lysates'; details in the Supplementary Information

B1: full-length recombinant CDH26A (cadherin-26, transcript variant A) (natural protein, human, UniProt Q8IXH8-4 28-832, looked up)
chain: DSVQQETDDLTKQTKEKIYQPLRRSKRRWVITTLELEEEDPGPFPKLIGELFNNMSYNMSLMYLISGPGVDEYPEIGLFSLEDHENGRIYVHRPVDREMTPSFTVYFDVVERSTGKIVDTSLIFNIRISDVNDHAPQFPEKEFNITVQENQSAGQPIFQMLAVDLDEENTPNSQVLYFLISQTPLLKESGFRVDRLSGEIRLSGCLDYETAPQFTLLIRARDCGEPSLSSTTTVHVDVQEGNNHRPAFTQENYKVQIPEGRASQGVLRLLVQDRDSPFTSAWRAKFNILHGNEEGHFDISTDPETNEGILNVIKPLDYETRPAQSLIIVVENEERLVFCERGKLQPPRKAAASATVSVQVTDANDPPAFHPQSFIVNKEEGARPGTLLGTFNAMDPDSQIRYELVHDPANWVSVDKNSGVVITVEPIDRESPHVNNSFYVIIIHAVDDGFPPQTATGTLMLFLSDINDNVPTLRPRSRYMEVCESAVHEPLHIEAEDPDLEPFSDPFTFELDNTWGNAEDTWKLGRNWGQSVELLTLRSLPRGNYLVPLFIGDKQGLSQKQTVHVRICPCASGLTCVELADAEVGLHVGALFPVCAAFVALAVALLFLLRCYFVLEPKRHGCSVSNDEGHQTLVMYNAESKGTSAQTWSDVEGQRPALLICTAAAGPTQGVKDLEEVPPSAASQSAQARCALGSWGYGKPFEPRSVKNIHSTPAYPDATMHRQLLAPVEGRMAETLNQKLHVANVLEDDPGYLPHVYSEEGECGGAPSLSSLASLEQELQPDLLDSLGSKATPFEEIYSESGVPS
notes: cadherin-26 (CDH26), human, product of transcript variant A (NM_177980; 18 exons; predicted protein molecular weight 92.4 kDa); full-length recombinant protein; also called rCDH26A; source: purified by the University of North Carolina Protein Expression and Purification Core Facility; for the analytical SEC 'in cell lysates'
B1: binds.
